# From the nanobody polyreactivity screen of Harvey et al. (2022)
# Assay: yeast display, Sf9 membrane polyspecificity reagent, FACS + sequencing; frameworks hold sequencing errors
# Procedure, shortened: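 Nanobodies came from a synthetic yeast display library in Saccharomyces cerevisiae BJ5465, induced with galactose for 36–48 hours and stained for 1 hour at 4 °C with 10% biotinylated, detergent-solubilized Sf9 membrane reagent. Cells were enriched on streptavidin microbeads and then FACS-sorted, with low and high (top ~1%) gates set on anti-HA fluorescence for expression and streptavidin fluorescence for reagent binding. Each polyreactivity label reflects the gate a clone came from. Genes were amplified by colony PCR, sequenced by MiSeq 2 × 250 and filtered by CDR length.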
row,Sequence,polyreactivity (PSR sort gate)
1,QVQLVESCGGLVQAGGSLRLSCAASGSTFRFNTMGWYRQPPGKERELVAAITRGGSTNYADSVKGRFTISRDNAKNTVYLQMNSLKPEDTAVYFCAAGYCWTFDYDYWGQGTQVTVSS,low polyreactivity
2,QVQLVESGGGLVQAGGSLRLSCAASGFTFSTYAMGWYRQAPGKERELVAGITRRGGSTYYADSVKGRFTISRDNAKNTVYLQMNSLKPEDTAVYYCARDLLRVSSSRYNSWGQGTQVTVSS,high polyreactivity
3,QVQLVESGGGLVQAGGSLRLSCAASGRTFLYNAMGWYRQAPGKERELVAAIRRGSSTYYADSVKGRFTISRDNAMNTVYLQMNSLKPEDTAVYYCAARGRYRIGPGRYGKRYDYWGQGTQVTVSS,high polyreactivity
4,QVQLVESGGGLVQAGGRLRLSCAASGSIISYYAMGWYRQAPGKERELVATITSSGSTYADSVKGRFTISRDNAKNTVYLQMNSLKPEDTAVYYCNADSGYSEYWGVDVAYDYWGQGTQVTVSS,low polyreactivity
5,QVQLEESGGGLVQEGGSLRLSCAASGSIFTQNARGWNRQAPGKERELVAAITISGGGTYYADSVKGRFTISRDNAKNTVYFQMNSQKPEDTAVYHCAAAGRARYYYRYGYWGQVTQVTVSS,low polyreactivity
6,QVQLVESGGGLVQAGGSLRLSCAASGRIFYGYTMGWYRQAPGKERELVAAISWSGGSTSYADSVKGRFTISRDNAKNTVYLQMNSLKPEDTAVYYCDVRYPGYRLYWGYTYDYWGQGTQVTVSS,high polyreactivity
7,QVQLQESGGGLVQAGGSLRLSCAASGNIFLGGDKGWYRQAPGKEREFVAAISDGTSTNYADSVKGRFTISRDNAKNTVYLQMNSLKPEDTAVYYCAAQYRYQRYSYAMEYWGQGTQVTVSS,high polyreactivity
8,QVQLVESGGGLVQAGGSLRLSCAASGSTFSIYAMGWYRQAPGKERELVAAISSDSTYYADSVKGRFTISRDNAKNTVYLQMNSLKPEDTAVYYCAADPYFPKYYYWGQGTQVTVSS,low polyreactivity
9,QVQLVESGGGLVQAGGSLRLSCASSGSTFAYYVMGRYIHAPGKEWELVAAISRGGRTYYADSVKGRFTISRDNAKNTVYFQLNSLKPEDTAVYYCAAEGASLAKYDYCGQGTQVTVSS,low polyreactivity
10,QVHLEESGGGLVQAGGSLRLSCAASGRIPFYAMGWYRQAPGKEREFVAAIRFSGGSTFYADSVKGRFTISRDNAKNTVYLQMNSLTPEDTAVYYCAAYLYYPFYWWRDYCGQGTQVTVSS,high polyreactivity
11,QVQHVESGGGLVQAGGSLRLSCAASGYTFIMYVMGWYRQAPGKERELVAAIDSNGTSTYADSVKGRFTISLDNAKNTVYFQMNSLKPEDTAVYYCAAGDIFRVFKEYDYWGQGTQVTVSS,low polyreactivity
12,QVQLVESGGGLVQAGGSLRLSCAASGLTFYTYPMGWYRQAPGKERELVAAISSSTGSTYYADSVKGRFTISRDNAKNTVYLQMNSLKPEDSAVYYCAAESYWGVNYWGQGTQVTVSS,high polyreactivity
13,QVHLVESGGGLVQAGGSLRLSCAASGRIFAGYGMGWYRQAPGKERELVAAISSGGSTYYADSVKGRFTISRDNAKNPVYLQINSLKPEDTAVYYCAADTYTYYDYMARYYYWGQGTQVTVSS,low polyreactivity
14,QVQLVESGGGLVQAGGSLRLSCAASGSTLGKYAMGWYRQAPGKERELVARITLNGGRTYYADSVKGRFTISRDNAKNTVYLQMNSLKPEDTAVYYCAKSLPHSTSRDYWGQGTQVTVSS,low polyreactivity
15,QVQLVESGGGLVQAGGSLRLSCAASGFTFGLYAMGWYRQAPGKERELVAAITSGGRTYYADSVKGRFTISRDNAKNTVYFQMNSLNPEDSAVYYCNADFFNAYLWYPGYESGFDYWGQCTQVTVSS,low polyreactivity
16,QVQLVESGGGLVQAGGSLRLSCAASGFTFTSYAMGWYRQAPGKERELVAAITWDGGRTYYADSVKGRFTISRDNSKNTVYLQMNSLKPEDTAVYYCAKVYNPRQYDYWGQGTQVTVSS,low polyreactivity
